The Kd is the equilibrium constant for the complex coming apart. Low values mean a tighter complex, high ones a looser complex.

For this assay, the target named is UbcH7-Ub (Homo sapiens, UniProt P68036). Kind of assay: ITC. Background: In ITC the heat of successive injections is recorded.
UbcH7-Ub, sequence (P68036 whole entry): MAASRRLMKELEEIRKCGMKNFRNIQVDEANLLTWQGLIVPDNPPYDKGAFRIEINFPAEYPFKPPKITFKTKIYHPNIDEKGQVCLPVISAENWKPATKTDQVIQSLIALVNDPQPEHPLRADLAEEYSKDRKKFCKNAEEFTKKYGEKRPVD

B1: HOIL-1 (protein)
chain: MDEKTKKAEEMALSLTRAVAGGDEQVAMKCAIWLAEQRVPLSVQLKPEVSPTQDIRLWVSVEDAQMHTVTIWLTVRPDMTVASLKDMVFLDYGFPPVLQQWVIGQRLARDQETLHSHGVRQNGDSAYLYLLSARNTSLNPQELQRERQLRMLEDLGFKDLTLQPRGPLEPGPPKPGVPQEPGRGQPDAVPEPPPVGWQCPGCTFINKPTRPGCEMCCRARPEAYQVPASYQPDEEERARLAGEEEALRQYQQRKQQQQEGNYLQHVQLDQRSLVLNTEPAECPVCYSVLAPGEAVVLRECLHTFCRECLQGTIRNSQEAEVSCPFIDNTYSCSGKLLEREIKALLTPEDYQRFLDLGISIAENRSAFSYHCKTPDCKGWCFFEDDVNEFTCPVCFHVNCLLCKAIHEQMNCKEYQEDLALRAQNDVAARQTTEMLKVMLQQGEAMRCPQCQIVVQKKDGCDWIRCTVCHTEICWVTKGPRWGPGGPGDTSGGCRCRVNGIPCHPSCQNCH
For the molecule B1, binding was put at a Kd of 5.3 µM.
